Assay [1] has as its target Fcγ receptors on monocytes (human blood). Kind of assay: FACS on human monocytes, antibody 10 µg/ml; negative control.
For assay [2] the target is unchanged. Kind of assay: FACS on human monocytes, antibody 10 µg/ml.
For assay [3], the target named is Fcγ receptors on granulocytes (human blood). Briefly: FACS on human granulocytes, antibody 10 µg/ml.

From USRE44389 come the findings set out here.

In assay [1], “Human IgG4 (CLB, the Netherlands), negative control (antibody)” showed a % monocytes binding antibody of 9.4%.
In assay [2], “HuMab 002 Fc variant IgG4v1 (S228P; L235E) (antibody)” returned a % monocytes binding antibody of 14.5%. Besides, the % granulocytes binding antibody in assay [3] came to 1.6%.
